Experimental data as given in PMC4999498.

B1: lymphocyte-specific protein-1 (Lsp1, mLsp1): S209A (protein)
parent chain: MAEAAIDPRCEEQEELHAEDSEGLTTQWREEDEEEAAREQRQRERERQLQDQDKDKEDDGGHSLEQPGQQTLISLKSSELDEDEGFGDWSQKPEPRQQFWGNEGTAEGTEPSQSERPEEKQTEESSHQAKVHLEESNLSYREPDPEDAVGGSGEAEEHLIRHQVRTPSPLALEDTVELSSPPLSPTTKLADRTESLNRSIKKSNSVKKSQPTLPISTIDERLQQYTQATESSGRTPKLSRQPSIELPSMAVASTKTLWETGEVQSQSASKTPSCQDIVAGDMSKKSLWEQKGGSKISSTIKSTPSGKRYKFVATGHGKYEKVLVDEGSAP
B2: lymphocyte-specific protein-1 (Lsp1, mLsp1): thiamet-G (TG) (protein)
parent chain: MAEAAIDPRCEEQEELHAEDSEGLTTQWREEDEEEAAREQRQRERERQLQDQDKDKEDDGGHSLEQPGQQTLISLKSSELDEDEGFGDWSQKPEPRQQFWGNEGTAEGTEPSQSERPEEKQTEESSHQAKVHLEESNLSYREPDPEDAVGGSGEAEEHLIRHQVRTPSPLALEDTVELSSPPLSPTTKLADRTESLNRSIKKSNSVKKSQPTLPISTIDERLQQYTQATESSGRTPKLSRQPSIELPSMAVASTKTLWETGEVQSQSASKTPSCQDIVAGDMSKKSLWEQKGGSKISSTIKSTPSGKRYKFVATGHGKYEKVLVDEGSAP

Legend:
[1] = phospho-S243 immunoblot, anti-IgM-stimulated Ramos; details: glycan lost; control: WT Lsp1
[2] = phospho-S243 immunoblot, anti-IgM-stimulated splenic B cells; details: glycan gained; control: no TG

Protein	other: phosphorylation at S243 [1]	other: phosphorylation at S243 [2]
B1	decreases	
B2		increases
